Test results: PMC2172855

Biological target: microtubules of cultured mouse hippocampal neurons (mouse (endogenous in cultured hippocampal neurons)) (UniProt P68369)
Assay: immunostaining of cells or tissue

fluorescence ratio of rigor-KIF5::GFP to tubulin staining, in axons: 1.2 | fluorescence ratio of rigor-KIF5::GFP to tubulin staining, in dendrites: 0.5
Substance: tailless KIF5B G234A::YFP (from UniProt Q61768 1-761) (domain or fragment)
